Target: soluble C-terminally truncated HAP2 ectodomain (HAP2e), residues 23-592, Chlamydomonas reinhardtii (Chlamydomonas reinhardtii) (UniProt A4GRC6)
Assay: SEC-MALS

For “soluble C-terminally truncated HAP2 ectodomain (HAP2e), residues 23-592, Chlamydomonas reinhardtii (from UniProt A4GRC6 23-592) (domain or fragment)”, the stoichiometry N was 6.

From PMC5332557
